From patent CN111995674A (INST MILITARY MEDICINE ACADEMY MILITARY SCIENCES PLA, dated 2020) come the findings set out here.

The target in the experiment is RBD重组蛋白 (SARS-CoV-2 S蛋白RBD区, 毕赤酵母GJK0601表达) (SARS-CoV-2).

A word on the EC50: it is the midpoint of the concentration-response curve.

B1: 人鼠嵌合全抗体mhC3 (antibody, V domains shown)
VH: EVQLVESGGDLVKPGGSLKLSCAASGFTFNTYAMNWVRQTPGKGLEWVARIRSKSNNYATYYADSVKDRFTISRDDSQSMLYLQMNNLKTEDTAMYYCVTPYYGNYADWFTYWGQGTSVTVSS
VL: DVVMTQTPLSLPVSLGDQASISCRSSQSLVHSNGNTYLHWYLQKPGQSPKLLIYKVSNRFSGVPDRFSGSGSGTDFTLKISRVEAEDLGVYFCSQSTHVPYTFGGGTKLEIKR
notes: also called mhC3抗体; C3 (图5、图6)
The molecule B1 returned a concentration giving a half-maximal response (EC50) of 0.0129 nM.
